System: huHF(+)-DOX (huHF(+) protein nanoparticle-doxorubicin conjugate)
Sequence (chain, as listed by the source): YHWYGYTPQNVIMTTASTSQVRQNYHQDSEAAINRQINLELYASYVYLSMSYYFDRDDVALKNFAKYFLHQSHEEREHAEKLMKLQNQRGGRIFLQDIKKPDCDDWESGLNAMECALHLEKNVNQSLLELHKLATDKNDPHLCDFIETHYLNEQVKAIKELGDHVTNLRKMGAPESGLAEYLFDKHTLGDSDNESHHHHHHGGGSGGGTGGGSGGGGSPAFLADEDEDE

Row | Protein | cleavage of the conjugate and release of doxorubicin (native-PAGE, UV absorbance), enzyme in LPM mixture
1 | cathepsin H (enzyme, UniProt P09668 116-335, looked up, species assumed) Cathepsin H: YPPSVDWRKKGNFVSPVKNQGACGSCWTFSTTGALESAIAIATGKMLSLAEQQLVDCAQDFNNHGCQGGLPSQAFEYILYNKGIMGEDTYPYQGKDGYCKFQPGKAIGFVKDVANITIYDEEAMVEAVALYNPVSFAFEVTQDFMMYRTGIYSSTSCHKTPDKVNHAVLAVGYGEKNGIPYWIVKNSWGPQWGMNGYFLIERGKNMCGLAACASYPIPLV | it was observed that the peptide was not specifically cleaved thereby the drug was not selectively released
2 | PrCP (prolylcarboxypeptidase) (enzyme, UniProt P42785 46-496, looked up, species assumed) Lysosomal Pro-X carboxypeptidase: KNYSVLYFQQKVDHFGFNTVKTFNQRYLVADKYWKKNGGSILFYTGNEGDIIWFCNNTGFMWDVAEELKAMLVFAEHRYYGESLPFGDNSFKDSRHLNFLTSEQALADFAELIKHLKRTIPGAENQPVIAIGGSYGGMLAAWFRMKYPHMVVGALAASAPIWQFEDLVPCGVFMKIVTTDFRKSGPHCSESIHRSWDAINRLSNTGSGLQWLTGALHLCSPLTSQDIQHLKDWISETWVNLAMVDYPYASNFLQPLPAWPIKVVCQYLKNPNVSDSLLLQNIFQALNVYYNYSGQVKCLNISETATSSLGTLGWSYQACTEVVMPFCTNGVDDMFEPHSWNLKELSDDCFQQWGVRPRPSWITTMYGGKNISSHTNIVFSNGELDPWSGGGVTKDITDTLVAVTISEGAHHLDLRTKNALDPMSVLLARSLEVRHMKNWIRDFYDSAGKQH | it was observed that the peptide was not specifically cleaved thereby the drug was not selectively released

Source: patent publication US20240374744
